Among the data in US20260092124A1 are Kd values, retold here.

Assay [1] concerns the target human CD40 (human) (UniProt P25942). Nature of the assay: cell binding (GpL luciferase, HT1080-CD40); single representative experiment.
For assay [2] the target is unchanged. Nature of the assay: cell binding (GpL luciferase, HT1080-CD40); mean, n=5.

Chain of human CD40 (human) (P25942 21-277): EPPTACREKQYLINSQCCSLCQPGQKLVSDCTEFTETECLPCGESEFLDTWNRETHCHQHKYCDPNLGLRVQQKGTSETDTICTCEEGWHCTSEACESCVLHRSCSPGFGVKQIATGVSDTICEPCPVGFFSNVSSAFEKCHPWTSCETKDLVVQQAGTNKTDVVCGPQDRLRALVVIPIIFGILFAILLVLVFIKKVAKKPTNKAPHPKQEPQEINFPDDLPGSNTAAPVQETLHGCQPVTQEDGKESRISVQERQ

In the case of APX005M IgG1 variant, the Kd (in general, the free concentration of one partner at which half of the binding sites on the other are occupied at equilibrium, for simple one-to-one binding) in the assay with human CD40 (human) [1] is 0.26 µg/mL; with human CD40 (human) [2] it was 0.274 µg/mL.

As for G28.5 IgG1 variant, the dissociation constant Kd with human CD40 (human) [1] amounted to 0.08 µg/mL; with human CD40 (human) [2], 0.086 µg/mL.

Consider CP-870,893 IgG1 variant, for which the values for the Kd with human CD40 (human) [1] and with human CD40 (human) [2] were 0.35 µg/mL and 0.334 µg/mL, respectively.
